Source: patent publication US20240148894A1, “USE OF ANTIBODY-DRUG CONJUGATE TARGETING HER2 IN TREATMENT OF SPECIFIC BREAST CANCER” (priority 2021, published 2024)
“And” between values parts separate entries of the source, which are not always exact repeats. Identical values can stand only once. “Also recorded” adds a separate entry of the source.

Tested on: HER2-positive (IHC 3+ or FISH +) locally advanced or metastatic breast cancer
Experiment: Parallel-group, randomized, open-label clinical trial; progression-free survival (PFS), ITT and metastatic-site subgroup analyses
Assay type: in vivo, human
Procedure: This study was a parallel-group, randomized, open-label clinical trial to evaluate the efficacy and safety of Disitamab vedotin as compared to treatment with lapatinib and capecitabine in patients with HER2-positive (positive being defined as IHC 3+ or FISH +) locally advanced or metastatic breast cancer. Subjects were randomized 1:1.
The primary endpoint indicator of the study was PFS (progression-free survival), which was evaluated for 6 weeks (±7 days).
Disitamab vedotin, namely RC48-ADC (average DAR value: 4±0.5), was administered at a dose of 2.0 mg/kg via intravenous drip, once every 2 weeks, 42 days as one treatment cycle.

[1] = overall ITT, RC48-ADC relative to capecitabine+lapatinib

B1: Disitamab vedotin (conjugate, chains of the INN, looked up)
VH: EVQLVQSGAEVKKPGATVKISCKVSGYTFTDYYIHWVQQAPGKGLEWMGRVNPDHGDSYYNQKFKDKATITADKSTDTAYMELSSLRSEDTAVYFCARNYLFDHWGQGTLVTVSS
VL: DIQMTQSPSSVSASVGDRVTITCKASQDVGTAVAWYQQKPGKAPKLLIYWASIRHTGVPSRFSGSGSGTDFTLTISSLQPEDFATYYCHQFATYTFGGGTKVEIK
modifications: vedotin (MMAE) payload
Disease progression or death, % (Bone metastasis: No (N=63 vs 68), ITT): 63.5%
Censoring, % (Bone metastasis: No, ITT): 36.5%
Progression-free survival time, Median (95% CI) (Bone metastasis: No, ITT, Kaplan-Meier): 9.6 months and 9.6 (6.9, 13.1) months
COX proportional hazards model (without considering stratification factors) Hazard ratio (95% CI) (Bone metastasis: No, RC48-ADC relative to capecitabine+lapatinib): 0.76 (0.50, 1.15)
Disease progression or death, % (Bone metastasis: Yes (N=36 vs 33), ITT): 77.8%
Censoring, % (Bone metastasis: Yes, ITT): 22.2%
Progression-free survival time, Median (95% CI) (Bone metastasis: Yes, ITT, Kaplan-Meier): 7.8 months and 7.8 (2.8, 12.4) months
COX proportional hazards model (without considering stratification factors) Hazard ratio (95% CI) (Bone metastasis: Yes, RC48-ADC relative to capecitabine+lapatinib): 0.95 (0.56, 1.61)
Disease progression or death, % (Liver metastasis: No (N=61 vs 58), ITT): 75.4%
Censoring, % (Liver metastasis: No, ITT): 24.6%
Progression-free survival time, Median (95% CI) (Liver metastasis: No, ITT, Kaplan-Meier): 7.0 months and 7.0 (5.5, 9.9) months
COX proportional hazards model (without considering stratification factors) Hazard ratio (95% CI) (Liver metastasis: No, RC48-ADC relative to capecitabine+lapatinib): 1.26 (0.83, 1.91)
Disease progression or death, % (Liver metastasis: Yes (N=38 vs 43), ITT): 57.9%
Censoring, % (Liver metastasis: Yes, ITT): 42.1%
Progression-free survival time, Median (95% CI) (Liver metastasis: Yes, ITT, Kaplan-Meier): 12.5 months and 12.5 (7.1, 14.1) months
COX proportional hazards model (without considering stratification factors) Hazard ratio (95% CI) (Liver metastasis: Yes, RC48-ADC relative to capecitabine+lapatinib): 0.41 (0.24, 0.71)
Disease progression or death, % (Lung metastasis: No (N=55 vs 49), ITT): 61.8%
Censoring, % (Lung metastasis: No, ITT): 38.2%
Progression-free survival time, Median (95% CI) (Lung metastasis: No, ITT, Kaplan-Meier): 10.9 months and 10.9 (5.7, 13.7) months
COX proportional hazards model (without considering stratification factors) Hazard ratio (95% CI) (Lung metastasis: No, RC48-ADC relative to capecitabine+lapatinib): 0.68 (0.42, 1.07)
Disease progression or death, % (Lung metastasis: Yes (N=44 vs 52), ITT): 77.3%
Censoring, % (Lung metastasis: Yes, ITT): 22.7%
Progression-free survival time, Median (95% CI) (Lung metastasis: Yes, ITT, Kaplan-Meier): 8.2 months and 8.2 (5.6, 12.2) months
COX proportional hazards model (without considering stratification factors) Hazard ratio (95% CI) (Lung metastasis: Yes, RC48-ADC relative to capecitabine+lapatinib): 1.05 (0.67, 1.65)
Disease progression or death, % (Viscera metastasis (CRF): No (N=22 vs 23), ITT): 68.2%
Censoring, % (Viscera metastasis (CRF): No, ITT): 31.8%
Progression-free survival time, Median (95% CI) (Viscera metastasis (CRF): No, ITT, Kaplan-Meier): 9.6 months and 9.6 (4.3, 14.2) months
Disease progression or death, % (Viscera metastasis (CRF): Yes (N=77 vs 78), ITT): 68.8%
Censoring, % (Viscera metastasis (CRF): Yes, ITT): 31.2%
Progression-free survival time, Median (95% CI) (Viscera metastasis (CRF): Yes, ITT, Kaplan-Meier): 9.3 months and 9.3 (6.9, 12.2) months
relative risk reduction of disease progression or death (Viscera metastasis: No (as printed in Table 7), vs capecitabine+lapatinib): 24% chance of
COX proportional hazards model (without considering stratification factors) Hazard ratio (95% CI) (Viscera metastasis: No, RC48-ADC relative to capecitabine+lapatinib): 1.02 (0.51, 2.05)
COX proportional hazards model (without considering stratification factors) Hazard ratio (95% CI) (Viscera metastasis: Yes, RC48-ADC relative to capecitabine+lapatinib): 0.76 (0.53, 1.10)
COX proportional hazards model (considering stratification factors) Hazard ratio (95% CI) [1]: 0.82 (0.59, 1.13)
COX proportional hazards model (without considering stratification factors) Hazard ratio (95% CI) [1]: 0.82 (0.60, 1.14)
PFS comparison with control group, in words (overall sample of breast cancer patients): did not show a statistically significant advantage
Censoring, % (overall, ITT analysis set): 31.3%
Disease progression or death, % (overall, ITT analysis set (N=99 vs 101)): 68.7%
Progression-free survival, Median (95% CI) (overall, ITT analysis set, Kaplan-Meier): 9.3 months and 9.3 (6.9, 12.2) months
PFS comparison with control group, in words (patients with bone metastasis): no very significant difference; also recorded: no statistically significant difference
median progression-free survival time longer than control treatment group by (patients with liver metastasis, vs capecitabine+lapatinib): 6.9 months
PFS comparison with control group, in words (patients with lung metastasis): no significant difference
progression-free survival time shorter than capecitabine+lapatinib by (patients with lung metastasis): 0.1 months
PFS comparison with control group, in words (patients with viscera metastasis): did not show statistical differences; also recorded: no statistically significant difference
median progression-free survival time longer than control treatment group by (patients with viscera metastasis, vs lapatinib+capecitabine): 2.4 months
PFS comparison with control group, in words (patients without bone metastasis): did not show a statistically significant advantage; also recorded: no very significant difference; also recorded: no statistically significant difference
relative risk reduction of disease progression or death (patients without bone metastasis, vs capecitabine+lapatinib): 24% chance of
median progression-free survival time longer than control treatment group by (patients without bone metastasis, vs lapatinib+capecitabine): 1.6 months
median progression-free survival time shorter than control treatment group by (patients without liver metastasis, vs capecitabine+lapatinib): 2.0 months
median progression-free survival time longer than control treatment group by (patients without lung metastasis, vs capecitabine+lapatinib): 5.3 months
PFS comparison with control group, in words (patients without viscera metastasis): did not show a statistically significant advantage; also recorded: no statistical difference; also recorded: no statistically significant difference
median progression-free survival time longer than control treatment group by (patients without viscera metastasis, vs lapatinib+capecitabine): 1.5 months
